The test system of one test is NF-κB. Briefly: NF-κB-Luciferase reporter assay in transfected 293FT cells (normalized to RSV-LacZ). Type of test: cell-based. To be noted: NF-κB-Luciferase plus RSV-LacZ reporter. Here is the method:
The different constructs were transfected in 293FT cells along with an NF-κB-Luciferase reporeter construct and a RSV-LacZ (normalization control) reporter construct and tested for their ability to activate NF-κB using assay described previously.
The constructs were transfected into 293FT cells along with an NF-κB-Luciferase reporeter construct and a RSV-LacZ reporter construct. Approximately 8 hours, post-transfection, cells were left untreated or treated with AP20187 (100 nM). After approximately 72 hours, cell lysates were prepared and analyzed for NF-κB luciferase and LacZ activities as described previously. NF-κB-Luc activity was normalized for LacZ activity to control for difference in transfection efficiency.
On the technique in general: A reporter such as luciferase makes a cellular process visible.

The subject of test [1] is bone marrow derived dendritic cells (DC). As to the kind of experiment: Bone marrow derived dendritic cells expressing selective NF-κB activators: cytokine production, antigen presentation, immune response. Type of test: cell-based. To be noted: compared to control DC. From the text: The disclosure further provides that expression of a selective NF-κB activator can be used to improve the cytokine secretion, antigen presentation and immune response generated by antigen presenting cells, including dendritic cells. The disclosure further provides a method of improving the efficacy of vaccine, including cancer vaccines, by expression of a selective NF-κB activator in the antigen presenting cells ex vivo or in vivo. In one embodiment, the use of selective NF-κB activators increase cytokine production (e.g., TNFα) by antigen presenting cells (e.g., dendritic cells) by more than at least 15%.

For a further test, the system named is BM-derived DCs. As to the kind of experiment: Maturation markers on transduced bone marrow-derived dendritic cells by flow cytometry. It counts as cell-based, mouse. The conditions noted are these: for maturation markers CD86, CD40, ICAM-1 and CD80 on DCs: compared to transduced DCs in the control vector group; for retention of CD86 on transduced DCs: culture. The protocol: Transduction of DCs and flow cytometry. Murine bone marrow-derived Dendritic cells (DCs) are prepared as previously described. Immature DCs are transduced on day 4 at an MOT of 20 with lentiviral vectors as described (Rowe H M et al, Molecular Therapy, 13, 2, 2006) and fed every 4 days with fresh medium containing granulocyte-macrophage colony-stimulating factor (50 ng/ml; from Peprotech). On day 5 posttransduction, DCs are harvested, washed, and blocked for Fc receptors before surface staining for maturation markers with the following biotin-conjugated Abs: anti-CD11c, anti-CD86, and anti-I-Ab (MHC class II) (all from BD Pharmingen); anti-CD40 (from Serotec); and anti-CD80, anti-ICAM-1, and anti-Kb (MHC class I) (all from eBioscience). A hamster isotype control Ab (biotin conjugated) is purchased from BD Pharmingen. Abs are then labeled with streptavidin RPE Cy-5 2o reagent (DakoCytomation) before flow cytometry. Lipopolysaccharide (LPS) (50 ng/ml) (Sigma) is added to untransduced DCs and left overnight as a positive control for maturation. Zymosan A (10 μg/ml) treatment (for 30 min at 37° C.) is used as a control for ERK activation.
Background: Flow cytometry measures light scatter and fluorescence of single cells or particles in a stream.

In another test the test system is EG7.OVA tumor cells. Briefly: EG7.OVA tumor therapy in C57BL/6 mice. Type of test: in vivo, mouse. To be noted: transduced DC injection or direct lentivector injection after lethal dose of EG7.OVA. Here is the method:
Tumor therapy. EG7.OVA tumor cells are grown in RPMI plus 0.4 mg/ml G418 (Invitrogen). C57BL/6 mice are challenged with 2×10^6 tumor cells injected s.c. into the flank and then vaccinated.
Mice are inoculated with a lethal dose of EG7.OVA tumor cells before vaccinating them either with transduced DCs or with the human NEMO-K277A-, human NEMO-K277A-deltaV249-K255-, mouse NEMO-K270A- and IKK2-S177E-S181E-vectors directly. All mice are shown to develop tumors.

A further test concerns lymph node DCs. Briefly: Lymph node dendritic cells after subcutaneous lentivector injection. It counts as in vivo, mouse. To be noted: s.c. lentivector injection; compared to control vector-injected animals. Here is the method:
DC purification from lymph nodes. C57/BL6 mice (Harlan) are injected subcutaneously (s.c.) at the base of the tail with 1×10^8 infectious units (i.u.) lentivector. Six days later, lymph nodes (para-aortical and inguinal) are harvested (cells from mice in each group were pooled), incubated with collagenase CLS-4 (Worthington), and mashed to obtain single-cell suspensions. Fc receptors are blocked before CD11c-positive cells are selected using MACS beads (Miltenyi Biotec).
Following s.c. lentivector injection, transduced DCs are detected in the draining lymph nodes.

Consider “hNEMO-K277G: hNEMO mutant in which Lys (K) at residue 277 is replaced by G”, for which, in the test on NF-κB, the “activation of NF-κB” value is listed as “weak activation”.

In the case of “hNEMO-K277A: human NEMO mutant K277A, constitutively active selective NF-κB activator used as accessory module”, the “cytokine production, antigen presentation and immune response of DC” value (from here on “cytokine production”) in test [1] was “superior cytokine production, antigen presentation, and immune response”. Further, in the test with BM-derived DCs, the “maturation markers CD86, CD40, ICAM-1 and CD80 on DCs” value (“maturation markers CD86, CD40” for short) is given as “upregulated”; the “retention of CD86 on transduced DCs” value is reported as “retain their upregulated CD86 for several weeks in culture”. For the same molecule, the “number of tumor-free mice” value in the test with EG7.OVA tumor cells is “higher than that in the control group”. Moreover, in the test with NF-κB, the “activation of NF-κB” value is recorded as “strong activation”. Also, the “CD86 on lymph node DCs” value in the test with lymph node DCs is reported as “upregulation of CD86”.

As for “hNEMO-K277I: hNEMO mutant in which Lys (K) at residue 277 is replaced by I”, in the test on NF-κB, the “activation of NF-κB” value is “weak activation”.

Consider hNEMO-K277L: hNEMO mutant K277L, for which the “activation of NF-κB” value in the test with NF-κB is “NF-κB activation”.

On to “K13-opt: vFLIP K13 encoded by human codon optimized nucleic acid sequence”, for which, in test [1], the “cytokine production” value is “superior cytokine production, antigen presentation, and immune response”.

B1: hNEMO-K277A-DeltaV249-K255: mutant lacking aminoacid residues V249-K255 of human NEMO and carrying the K277A mutation (protein)
chain: MNRHLWKSQLCEMVQPSGGPAADQDVLGEESPLGKPAMLHLPSEQGAPETLQRCLEENQELRDAIRQSNQILRERCEELLHFQASQREEKEFLMCKFQEARKLVERLGLEKLDLKRQKEQALREVEHLKRCQQQMAEDKASVKAQVTSLLGELQESQSRLEAATKECQALEGRARAASEQARQLESEREALQQQHSVQVDQLRMQGQSVEAALRMERQAASEEKRKLAQLQVAYHQLFQEYDNHIKSSRGMQLEDLKQQLQQAEEALVAAQEVIDKLKEEAEQHKIVMETVPVLKAQADIYKADFQAERQAREKLAEKKELLQEQLEQLQREYSKLKASCQESARIEDMRKRHVEVSQAPLPPAPAYLSSPLALPSQRRSPPEEPPDFCCPKCQYQAPDMDTLQIHVMECIE
For B1, in test [1], the “cytokine production” value was “superior cytokine production, antigen presentation, and immune response”. In the test on BM-derived DCs, the “maturation markers CD86, CD40” value is recorded as “upregulated”; the “retention of CD86 on transduced DCs” value is reported as “retain their upregulated CD86 for several weeks in culture”. Besides, the “number of tumor-free mice” value in the test with EG7.OVA tumor cells is “higher than that in the control group”. Further, in the test on NF-κB, the “activation of NF-κB” value was “NF-κB activation”. In the test with lymph node DCs, the “CD86 on lymph node DCs” value is recorded as “upregulation of CD86”.

B2: IKK1-S176E-S180E: constitutive active mutant of IKKa/IKK1 (protein)
chain: MERPPGLRPGAGGPWEMRERLGTGGFGNVCLYQHRELDLKIAIKSCRLELSTKNRERWCHEIQIMKKLNHANVVKACDVPEELNILIHDVPLLAMEYCSGGDLRKLLNKPENCCGLKESQILSLLSDIGSGIRYLHENKIIHRDLKPENIVLQDVGGKIIHKIIDLGYAKDVDQGELCTEFVGTLQYLAPELFENKPYTATVDYWSFGTMVFECIAGYRPFLHHLQPFTWHEKIKKKDPKCIFACEEMSGEVRFSSHLPQPNSLCSLIVEPMENWLQLMLNWDPQQRGGPVDLTLKQPRCFVLMDHILNLKIVHILNMTSAKIISFLLPPDESLHSLQSRIERETGINTGSQELLSETGISLDPRKPASQCVLDGVRGCDSYMVYLFDKSKTVYEGPFASRSLSDCVNYIVQDSKIQLPIIQLRKVWAEAVHYVSGLKEDYSRLFQGQRAAMLSLLRYNANLTKMKNTLISASQQLKAKLEFFHKSIQLDLERYSEQMTYGISSEKMLKAWKEMEEKAIHYAEVGVIGYLEDQIMSLHAEIMGLQKSPYGRRQGDLMESLEQRAIDLYKQLKHRPSDHSYSDSTEMVKIIVHTVQSQDRVLKELFGHLSKLLGCKQKIIDLLPKVEVALSNIKEADNTVMFMQGKRQKEIWHLLKIACTQSSARSLVGSSLEGAVTPQTSAWLPPTSAEHDHSLSCVVTPQDGETSAQMIEENLNCLGHLSTIIHEANEEQGNSMMNLDWSWLTE
Take B2: the “cytokine production” value in test [1] is “superior cytokine production, antigen presentation, and immune response”.

B3: mNEMO-K270A: mouse NEMO-K270A mutant, known to activate NF-κB constitutively (protein)
chain: MNKHPWKNQLSETVQPSGGPAEDQDMLGEESSLGKPAMLHLPSEQGTPETLQRCLEENQELRDAIRQSNQMLRERCEELLHFQVSQREEKEFLMCKFQEARKLVERLSLEKLDLRSQREQALKELEQLKKCQQQMAEDKASVKAQVTSLLGELQESQSRLEAATKDRQALEGRIRAVSEQVRQLESEREVLQQQHSVQVDQLRMQNQSVEAALRMERQAASEEKRKLAQLQAAYHQLFQDYDSHIKSSKGMQLEDLRQQLQQAEEALVAAQELIDKLKEEAEQHKIVMETVPVLKAQADIYKADFQAERHAREKLVEKKEYLQEQLEQLQREFNKLKVGCHESARIEDMRKRHVETPQPPLLPAPAHHSFHLALSNQRRSPPEEPPDFCCPKCQYQAPDMDTLQIHVMECIE
As for B3, in test [1], the “cytokine production” value is “superior cytokine production, antigen presentation, and immune response”. Moreover, in the test with BM-derived DCs, the “maturation markers CD86, CD40” value is reported as “upregulated”; the “retention of CD86 on transduced DCs” value is “retain their upregulated CD86 for several weeks in culture”. For the same molecule, the “number of tumor-free mice” value in the test on EG7.OVA tumor cells is listed as “higher than that in the control group”. Besides, in the test on NF-κB, the “activation of NF-κB” value was “strong activation”. Besides, the “CD86 on lymph node DCs” value in the test with lymph node DCs was “upregulation of CD86”.

B4: IKK2-S177E-S181E: constitutive active mutant of IKKβ/IKK2 (protein)
chain: MSWSPSLTTQTCGAWEMKERLGTGGFGNVIRWHNQETGEQIAIKQCRQELSPRNRERWCLEIQIMRRLTHPNVVAARDVPEGMQNLAPNDLPLLAMEYCQGGDLRKYLNQFENCCGLREGAILTLLSDIASALRYLHENRIIHRDLKPENIVLQQGEQRLIHKIIDLGYAKELDQGELCTEFVGTLQYLAPELLEQQKYTVTVDYWSFGTLAFECITGFRPFLPNWQPVQWHSKVRQKSEVDIVVSEDLNGTVKFSSSLPYPNNLNSVLAERLEKWLQLMLMWHPRQRGTDPTYGPNGCFKALDDILNLKLVHILNMVTGTIHTYPVTEDESLQSLKARIQQDTGIPEEDQELLQEAGLALIPDKPATQCISDGKLNEGHTLDMDLVFLFDNSKITYETQISPRPQPESVSCILQEPKRNLAFFQLRKVWGQVWHSIQTLKEDCNRLQQGQRAAMMNLLRNNSCLSKMKNSMASMSQQLKAKLDFFKTSIQIDLEKYSEQTEFGITSDKLLLAWREMEQAVELCGRENEVKLLVERMMALQTDIVDLQRSPMGRKQGGTLDDLEEQARELYRRLREKPRDQRTEGDSQEMVRLLLQAIQSFEKKVRVIYTQLSKTVVCKQKALELLPKVEEVVSLMNEDEKTVVRLQEKRQKELWNLLKIACSKVRGPVSGSPDSMNASRLSQPGQLMSQPSTASNSLPEPAKKSEELVAEAHNLCTLLENAIQDTVREQDQSFTALDWSWLQTEEEEHSCLEQAS
In the case of B4, the “cytokine production” value in test [1] was “superior cytokine production, antigen presentation, and immune response”. For the same molecule, in the test with BM-derived DCs, the “maturation markers CD86, CD40” value is “upregulated”; the “retention of CD86 on transduced DCs” value is “retain their upregulated CD86 for several weeks in culture”. Besides, the “number of tumor-free mice” value with EG7.OVA tumor cells is recorded as “higher than that in the control group”. For the same molecule, the “CD86 on lymph node DCs” value in the test on lymph node DCs was “upregulation of CD86”.
